B1: MTK-33.8 (antibody, human IgG1, V domains shown)
VH: QVQLVQSGAEVKKPGASVKVSCKASGYTFTSYWMHWVRQAPGQGLEWIGVIDPSDNYINYNQKFQGRVTMTRDTSTSTVYMELSSLRSEDTAVYYCAREAWTRGYFNYWGQGTLVTVSS
VL: DIQMTQSPSSLSASVGDRVTITCQASQSVSRTVAWYQQKPGKAPKLLIYYASNRYTGVPSRFSGSGSGTDFTFTISSLQPEDIATYYCQQDYRSPFTFGQGTKLEIK
B2: MTK-33.17 (antibody, human IgG1, V domains shown)
VH: B1 VH with D52A, Q65R, W101G, N107D
VL: B1 VL with Q27R, R31N, Y92M
B3: MTK-33.21 (antibody, human IgG1, V domains shown)
VH: B1 VH with Q65R, W101G, N107D
VL: B1 VL with D17G, Q27R, R31N, A51V, Y92M
B4: MTK-33.10 (antibody, V domains shown)
VH: B1 VH with G26S, T28S, Q65R, W101G, N107D
VL: B1 VL with S26G, R31N
B5: MTK-33.14 (antibody, human IgG1, V domains shown)
VH: B1 VH with Q65R, W101G, N107D
VL: B1 VL with R31N
B6: MTK-33.12 (antibody, V domains shown)
VH: B1 VH with T30V, Q65R, W101G, N107D
VL: B1 VL with R31N, Q89R, Y92T, I106L
B7: MTK-33.11 (antibody, human IgG1, V domains shown)
VH: B1 VH with N107D
VL: B1 VL with Q27R, S30R, R31N
B8: MTK-33.16 (antibody, human IgG1, V domains shown)
VH: B1 VH with G26W, W101G, N107D
VL: B1 VL with Q27R, R31N
B9: MTK-33.15 (antibody, human IgG1, V domains shown)
VH: B1 VH with G66V, W101G, N107D
VL: B1 VL with Q27R, R31N, Y92M
B10: MTK-23 (antibody, human IgG1, V domains shown)
VH: QVQLQQSGADLVRPGASVKISCKAFGYTFTNHHINWVKQRPGQGLDWIGNVDPYNDYSTYNQKFKGKATLTVDKSSSTAYMELSSLTSEDSAVYYCARRVYDGFYVDWYFDVWGAGTTVTVSS
VL: DIVMTQSHKFMSTPVGDRVSITCKASRDVSTAVAWFHQKPGQSPKLLIYSASYRSTGVPDRFTGSGSGTDFTFTISSVQAEDLAVYYCQQHYSAPLTFGAGTKLELK

Usually Kd stands for the constant that tells how readily two partners part at equilibrium. The term IC50 denotes the concentration that inhibits the measured activity by half.

Residue numbers refer to the chain shown, from its start.

The target of the first test is T1, human MerTK extracellular domain (ECD), recombinant (human, UniProt Q12866 21-505).
T1 construct: also called huMerTK; not shown: polyHis tag or TEVS/Thrombin/murine IgG2a Fc tag
T1 sequence: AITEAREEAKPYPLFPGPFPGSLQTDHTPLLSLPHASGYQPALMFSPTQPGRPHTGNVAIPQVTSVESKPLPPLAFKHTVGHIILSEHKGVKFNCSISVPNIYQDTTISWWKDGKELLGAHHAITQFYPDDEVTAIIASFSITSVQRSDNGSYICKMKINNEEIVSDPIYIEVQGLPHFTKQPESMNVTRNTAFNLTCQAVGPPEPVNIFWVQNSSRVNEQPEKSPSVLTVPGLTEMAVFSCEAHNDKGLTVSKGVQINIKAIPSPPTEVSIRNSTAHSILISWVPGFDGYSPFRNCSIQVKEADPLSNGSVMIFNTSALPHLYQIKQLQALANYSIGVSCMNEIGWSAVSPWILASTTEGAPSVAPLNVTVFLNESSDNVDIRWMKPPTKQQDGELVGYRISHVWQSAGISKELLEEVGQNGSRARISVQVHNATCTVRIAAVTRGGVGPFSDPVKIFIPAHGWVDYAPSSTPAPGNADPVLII
Put plainly: SPR, Carterra LSA, antibody immobilised. On the procedure:
(§1) Binding kinetics of humanized and affinity-matured anti-MerTK antibodies of the present disclosure to human, murine, and cynomolgus MerTK proteins were evaluated as follows. Briefly, anti-MerTK antibodies were prepared by diluting to 10 μg/ml in 10 mM Acetate, pH 4.25 (Carterra, Salt Lake City, Utah), at 300 μl/well. A HC200M sensor chip (Carterra) was activated using the single channel flow cell with a 7-minute injection of a 1:1:1 mixture of 100 mM MES pH 5.5, 100 mM sulfo-NHS, 400 mM EDC (all reconstituted in MES pH 5.5; 100 μl of each mixed in vial immediately before running assay). After switching to the multi-channel array flow cell, the antibodies were injected over the activated chip in a 96-spot array for 15 minutes. The remaining unconjugated active groups on the chip were then blocked by injecting 1M Ethanolamine pH 8.5 (Carterra) for 7 minutes using the single channel flow cell.
(§2) Estimates of affinity were generated by injecting each analyte over the entire antibody array using the single channel flow cell. MerTK analytes were diluted to 33.3, 100, and 300 nM in running buffer, and injected in serial from lowest to highest concentration without regeneration. Two buffer blanks were run between each series (one species per series). Data were processed and analyzed using NextGenKIT high-throughput kinetics analysis software (Carterra). In these experiments, the anti-MerTK antibodies were human IgG1 isotype containing the Fc variant LALAPS.
(§3) The equilibrium dissociation constants (KD) were then calculated from the fitted association and dissociation rate constants (k-on and k-off) for anti-MerTK antibodies of the present disclosure.
On the technique in general: In SPR one partner is held on a chip, and binding of the other changes the refractive index at the surface.
Regarding B1, the Kd stood at 41 nM.

For the molecule B2, the Kd worked out at 20.4 nM.

Regarding B3, the Kd turned out to be 0.4 nM.

Consider B4, for which the equilibrium dissociation constant (Kd) turned out to be 41 nM.

In the case of B5, the Kd amounted to 30.5 nM.

In the case of B6, the dissociation constant Kd is 8.6 nM.

Regarding B7, the dissociation constant Kd turned out to be 11 nM.

Regarding B8, the Kd worked out at 10.9 nM.

B9: the Kd was determined as 4.6 nM.

Another test concerns the target T2, cyno MerTK extracellular domain (ECD), recombinant (cynomolgus monkey, UniProt Q12866 21-505 (human entry)).
T2 construct: also called cynomolgus MerTK; not shown: polyHis tag or TEVS/Thrombin/murine IgG2a Fc tag
T2 chain: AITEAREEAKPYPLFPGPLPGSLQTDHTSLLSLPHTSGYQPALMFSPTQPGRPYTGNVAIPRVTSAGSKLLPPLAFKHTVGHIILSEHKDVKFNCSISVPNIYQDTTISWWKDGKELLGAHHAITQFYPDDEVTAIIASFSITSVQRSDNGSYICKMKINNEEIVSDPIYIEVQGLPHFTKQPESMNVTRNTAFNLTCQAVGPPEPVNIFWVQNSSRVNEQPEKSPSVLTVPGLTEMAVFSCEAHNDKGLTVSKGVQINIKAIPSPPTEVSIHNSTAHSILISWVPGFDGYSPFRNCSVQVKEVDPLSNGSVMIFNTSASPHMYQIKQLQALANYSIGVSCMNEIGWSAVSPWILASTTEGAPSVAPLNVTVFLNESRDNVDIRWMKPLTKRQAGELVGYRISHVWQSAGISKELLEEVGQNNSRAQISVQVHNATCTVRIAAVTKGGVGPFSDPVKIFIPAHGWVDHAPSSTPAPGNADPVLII
Put plainly: SPR, Carterra LSA, antibody immobilised. On the procedure: as §1, §2, §3
As to B1, the Kd was 41 nM.

Consider B2, for which the Kd turned out to be 19.9 nM.

In the case of B3, the dissociation constant Kd turned out to be 0.3 nM.

Turning to B4, the Kd amounted to 38 nM.

Turning to B5, the Kd is 29 nM.

Turning to B6, the dissociation constant Kd amounted to 7.9 nM.

As to B7, the dissociation constant (Kd) turned out to be 10.1 nM.

On to B8, for which the Kd was 10.1 nM.

For B9, the Kd worked out at 4 nM.

For a further test, the target named is T3, murine MerTK extracellular domain (ECD), recombinant (mouse, UniProt Q60805 19-497).
T3 construct: also called moMerTK; mouse MerTK; not shown: polyHis tag or TEVS/Thrombin/murine IgG2a Fc tag
T3 sequence: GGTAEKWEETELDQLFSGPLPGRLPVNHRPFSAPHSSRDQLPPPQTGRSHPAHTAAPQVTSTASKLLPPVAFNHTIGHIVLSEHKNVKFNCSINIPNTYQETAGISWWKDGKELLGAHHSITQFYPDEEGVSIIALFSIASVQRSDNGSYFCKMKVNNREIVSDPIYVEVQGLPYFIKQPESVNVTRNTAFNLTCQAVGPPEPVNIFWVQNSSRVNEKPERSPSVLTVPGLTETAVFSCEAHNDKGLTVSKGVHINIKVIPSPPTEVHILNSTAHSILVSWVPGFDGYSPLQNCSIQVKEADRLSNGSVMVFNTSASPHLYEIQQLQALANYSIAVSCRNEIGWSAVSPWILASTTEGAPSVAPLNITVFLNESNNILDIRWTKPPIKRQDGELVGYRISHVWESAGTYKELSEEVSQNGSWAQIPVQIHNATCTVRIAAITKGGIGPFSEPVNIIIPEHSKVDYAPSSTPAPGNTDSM
The test is described as follows: SPR, Carterra LSA, antibody immobilised. On the procedure: as §1, §2, §3
Turning to B1, the dissociation constant Kd was determined as 465 nM.

Consider B2, for which the Kd worked out at 505 nM.

In the case of B3, the equilibrium dissociation constant (Kd) turned out to be 44 nM.

Regarding B4, the Kd stood at 150 nM.

With B5, the Kd is 275 nM.

As for B6, the Kd was found to be 230 nM.

For the molecule B7, the dissociation constant (Kd) amounted to 115 nM.

Consider B8, for which the Kd amounted to 225 nM.

For B9, the Kd was 105 nM.

A further test concerns the target T4, Recombinant human MerTK human Fc Chimera protein (R&D systems, Cat #391-MR-100) (human, UniProt Q12866 26-499, limits assumed).
T4 construct: Bought; also called recombinant human MerTK protein; MerTK-Fc
T4 sequence: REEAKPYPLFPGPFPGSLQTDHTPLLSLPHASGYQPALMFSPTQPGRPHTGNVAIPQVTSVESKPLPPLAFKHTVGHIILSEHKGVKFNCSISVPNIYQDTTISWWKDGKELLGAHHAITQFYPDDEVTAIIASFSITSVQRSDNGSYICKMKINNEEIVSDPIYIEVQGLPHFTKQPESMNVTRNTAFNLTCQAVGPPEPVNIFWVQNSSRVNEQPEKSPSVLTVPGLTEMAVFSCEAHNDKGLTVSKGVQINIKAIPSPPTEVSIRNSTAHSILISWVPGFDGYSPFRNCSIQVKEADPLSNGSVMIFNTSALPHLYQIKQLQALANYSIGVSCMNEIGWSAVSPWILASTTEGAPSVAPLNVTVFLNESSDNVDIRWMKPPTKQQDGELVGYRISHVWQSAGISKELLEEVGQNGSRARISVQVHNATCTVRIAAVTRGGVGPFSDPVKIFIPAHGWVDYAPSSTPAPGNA
The test is described as follows: competition ELISA, His-ProS on captured MerTK-Fc. On the procedure:
Rabbit anti-human IgG polyclonal antibody (Jackson ImmunoResearch, Cat #309-005-008) was captured to a high-protein binding plate at 2 μg/ml 4° C. overnight. After washing with 0.05% Tween20 in PBS three times, 5% BSA in PBS was added for 1 hour. Recombinant human MerTK human Fc Chimera protein (R&D systems, Cat #391-MR-100) was added at 2 μg/ml for 1 hour and the plates were then washed. Anti-MerTK antibodies were titrated to final concentration range of between 66.6 nM to 4 pM and then 40 μl of serially diluted antibody and 40 μl of His tag-conjugated recombinant Gas6 protein (R&D systems, Cat #885-GSB-050) at 3 μg/ml or His tag-conjugated recombinant ProS protein (R&D systems, Cat #9489-PS-100) at 20 μg/ml. After a further incubation for 1 hour, plates were washed and incubated for 1 hour with HRP-conjugated anti-6×His tag antibody (Abcam, Cat #ab1187). Plates were then washed and an HRP substrate (TMB) was used to develop the plates. After sufficient color change was observed, the reaction was stopped by adding 50 μl 2N H₂SO₄ and the OD was measured using a spectrophotometer (BioTek).
From these experiments, IC50 values [nM] were determined using OD450 values obtained from the dose-response curves analyzed with Prism software. Table 14 and Table 15 show IC50 values determined for anti-MerTK antibody blocking of Gas6 ligand binding and ProS ligand binding to MerTK. […] Dashes indicate lack of significant blocking; “n.a.” indicates data not available.
On the technique in general: An ELISA detects its analyte on a solid surface through an enzyme-linked reagent.
As to B10, the IC50 worked out at 25.9 nM.

For the origin of these results see US20210261685A1 (Alector, published 2021).
